According to article PMC12416549 (2024):
Positions count from the first letter of the chain named. Numbers in names are those of the source. One block for each binder: values may come before it.

Molecular target: T1, TNFR1 (Homo sapiens, UniProt P19438)
T1 chain: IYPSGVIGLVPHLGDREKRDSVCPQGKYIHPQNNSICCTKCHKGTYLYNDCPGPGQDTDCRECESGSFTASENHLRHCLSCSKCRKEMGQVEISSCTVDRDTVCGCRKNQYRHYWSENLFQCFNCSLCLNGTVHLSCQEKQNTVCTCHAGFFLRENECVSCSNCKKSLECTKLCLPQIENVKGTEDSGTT
Test: yeast display SC50

B1: Y70I (designed binder)
chain: SMEEEVEKAAKEYEKKKKEAIEKHLEKLKAKDKEAAERFLKELEEAAKEYAKDEAKTMSEEEAKRRAKKIKEKVLLSELSEEEQKEIKEAEEKLVRTILKYVEEAAK
- apparent Kd (screen): 20200 pM

B2: E5P (designed binder)
chain: B1 chain with E5P, I70Y
- apparent Kd (screen): 446 pM

B6: D32E (designed binder)
chain: B1 chain with D32E, I70Y
- apparent Kd (screen): 956 pM

B7: A10V (designed binder)
chain: B1 chain with A10V, I70Y
- apparent Kd (screen): 490 pM

B8: A20D (designed binder)
chain: B1 chain with A20D, I70Y
- apparent Kd (screen): 1160 pM

B9: A51W (designed binder)
chain: B1 chain with A51W, I70Y
- apparent Kd (screen): 490 pM

B10: E34S (designed binder)
chain: B1 chain with E34S, I70Y
- apparent Kd (screen): 718 pM

B11: M2V (designed binder)
chain: B1 chain with M2V, I70Y
- apparent Kd (screen): 446 pM

B12: E54Q (designed binder)
chain: B1 chain with E54Q, I70Y
- apparent Kd (screen): 10400 pM

B15: L40C (designed binder)
chain: B1 chain with L40C, I70Y
- apparent Kd (screen): 446 pM

B16: E81C (designed binder)
chain: B1 chain with I70Y, E81C
- apparent Kd (screen): 869 pM

B18: K100A (designed binder)
chain: B1 chain with I70Y, K100A
- apparent Kd (screen): 1400 pM

B19: A9H (designed binder)
chain: B1 chain with A9H, I70Y
- apparent Kd (screen): 539 pM

B20: E14C (designed binder)
chain: B1 chain with E14C, I70Y
- apparent Kd (screen): 9410 pM

B24: K93W (designed binder)
chain: B1 chain with I70Y, K93W
- apparent Kd (screen): 2730 pM

B25: E83R (designed binder)
chain: B1 chain with I70Y, E83R
- apparent Kd (screen): 539 pM

B27: Y50L (designed binder)
chain: B1 chain with Y50L, I70Y
- apparent Kd (screen): 790 pM

B30: E26K (designed binder)
chain: B1 chain with E26K, I70Y
- apparent Kd (screen): 490 pM

B33: L25M (designed binder)
chain: B1 chain with L25M, I70Y
- apparent Kd (screen): 539 pM

B34: E42Y (designed binder)
chain: B1 chain with E42Y, I70Y
- apparent Kd (screen): 6430 pM

B37: S77F (designed binder)
chain: B1 chain with I70Y, S77F
- apparent Kd (screen): 1050 pM

B38: A30L (designed binder)
chain: B1 chain with A30L, I70Y
- apparent Kd (screen): 593 pM

B40: I98L (designed binder)
chain: B1 chain with I70Y, I98L
- apparent Kd (screen): 13800 pM

B41: A20T (designed binder)
chain: B1 chain with A20T, I70Y
- apparent Kd (screen): 718 pM

B42: A51T (designed binder)
chain: B1 chain with A51T, I70Y
- apparent Kd (screen): 3300 pM

B43: R38K (designed binder)
chain: B1 chain with R38K, I70Y
- apparent Kd (screen): 10400 pM

B44: K64G (designed binder)
chain: B1 chain with K64G, I70Y
- apparent Kd (screen): 490 pM

B45: E14D (designed binder)
chain: B1 chain with E14D, I70Y
- apparent Kd (screen): 1160 pM

B46: S59N (designed binder)
chain: B1 chain with S59N, I70Y
- apparent Kd (screen): 1690 pM

B47: M2T (designed binder)
chain: B1 chain with M2T, I70Y
- apparent Kd (screen): 446 pM

B48: R96T (designed binder)
chain: B1 chain with I70Y, R96T
- apparent Kd (screen): 1540 pM

B50: A47Q (designed binder)
chain: B1 chain with A47Q, I70Y
- apparent Kd (screen): 490 pM

B51: K52D (designed binder)
chain: B1 chain with K52D, I70Y
- apparent Kd (screen): 446 pM

B52: K11Q (designed binder)
chain: B1 chain with K11Q, I70Y
- apparent Kd (screen): 446 pM

B53: E60T (designed binder)
chain: B1 chain with E60T, I70Y
- apparent Kd (screen): 1400 pM

B54: E82T (designed binder)
chain: B1 chain with I70Y, E82T
- apparent Kd (screen): 490 pM

B57: E37A (designed binder)
chain: B1 chain with E37A, I70Y
- apparent Kd (screen): 490 pM

B58: K56H (designed binder)
chain: B1 chain with K56H, I70Y
- apparent Kd (screen): 4830 pM

B59: K18G (designed binder)
chain: B1 chain with K18G, I70Y
- apparent Kd (screen): 653 pM

Now from value to binder:

- apparent Kd (screen): 1400 pM
B3: R65N (designed binder)
chain: B1 chain with R65N, I70Y

- apparent Kd (screen): 1860 pM
B4: L79I (designed binder)
chain: B1 chain with I70Y, L79I

- apparent Kd (screen): 593 pM
B5: K31T (designed binder)
chain: B1 chain with K31T, I70Y

- apparent Kd (screen): 18300 pM
B13: A67F (designed binder)
chain: B1 chain with A67F, I70Y

- apparent Kd (screen): 5310 pM
B14: K73P (designed binder)
chain: B1 chain with I70Y, K73P

- apparent Kd (screen): 446 pM
B17: K85Y (designed binder)
chain: B1 chain with I70Y, K85Y

- apparent Kd (screen): 446 pM
B21: E37N (designed binder)
chain: B1 chain with E37N, I70Y

- apparent Kd (screen): 446 pM
B22: K48A (designed binder)
chain: B1 chain with K48A, I70Y

- apparent Kd (screen): 10400 pM
B23: E7M (designed binder)
chain: B1 chain with E7M, I70Y

- apparent Kd (screen): 490 pM
B26: K48L (designed binder)
chain: B1 chain with K48L, I70Y

- apparent Kd (screen): 956 pM
B28: L28M (designed binder)
chain: B1 chain with L28M, I70Y

- apparent Kd (screen): 490 pM
B29: A47C (designed binder)
chain: B1 chain with A47C, I70Y

- apparent Kd (screen): 446 pM
B31: K15Y (designed binder)
chain: B1 chain with K15Y, I70Y

- apparent Kd (screen): 869 pM
B32: K33R (designed binder)
chain: B1 chain with K33R, I70Y

- apparent Kd (screen): 1270 pM
B35: S80V (designed binder)
chain: B1 chain with I70Y, S80V

- apparent Kd (screen): 7780 pM
B36: L79P (designed binder)
chain: B1 chain with I70Y, L79P

- apparent Kd (screen): 446 pM
B39: S59G (designed binder)
chain: B1 chain with S59G, I70Y

- apparent Kd (screen): 4830 pM
B49: Y70S (designed binder)
chain: B1 chain with I70S

- apparent Kd (screen): 1050 pM
B55: E89M (designed binder)
chain: B1 chain with I70Y, E89M

- apparent Kd (screen): 2730 pM
B56: F39G (designed binder)
chain: B1 chain with F39G, I70Y
